Source: patent publication US20100113339A1

Key:
[1] = target: mouse serum albumin (mouse) (UniProt P07724); assay: SPR Biacore 3000; mouse albumin against human/rhesus albumin as reference
[2] = target: human serum albumin (human) (UniProt P02768); assay: SPR Biacore 3000, albumin amine-coupled on CM5 chip, nanobody concentration series
[3] = target: mouse serum albumin (mouse) (UniProt P07724); assay: as above
[4] = target: rhesus serum albumin (rhesus) (UniProt Q28522); assay: as above
Sequence of rhesus serum albumin (rhesus) (Q28522 17-600 limits assumed): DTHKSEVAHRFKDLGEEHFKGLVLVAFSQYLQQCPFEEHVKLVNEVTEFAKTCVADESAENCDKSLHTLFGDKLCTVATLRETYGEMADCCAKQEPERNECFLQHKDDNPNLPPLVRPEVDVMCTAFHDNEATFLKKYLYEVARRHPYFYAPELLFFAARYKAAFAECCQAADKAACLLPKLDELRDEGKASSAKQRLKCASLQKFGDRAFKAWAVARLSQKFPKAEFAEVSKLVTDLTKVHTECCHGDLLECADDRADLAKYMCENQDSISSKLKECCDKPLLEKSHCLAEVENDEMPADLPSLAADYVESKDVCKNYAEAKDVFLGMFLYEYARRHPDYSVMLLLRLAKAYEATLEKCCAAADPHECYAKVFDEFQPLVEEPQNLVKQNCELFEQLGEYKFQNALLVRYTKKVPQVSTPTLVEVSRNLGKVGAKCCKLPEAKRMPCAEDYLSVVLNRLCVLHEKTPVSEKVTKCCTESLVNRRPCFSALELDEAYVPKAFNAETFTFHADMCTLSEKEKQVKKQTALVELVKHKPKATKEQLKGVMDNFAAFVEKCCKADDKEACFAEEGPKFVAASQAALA

Sequence of mouse serum albumin (mouse) (P07724 25-608 limits assumed): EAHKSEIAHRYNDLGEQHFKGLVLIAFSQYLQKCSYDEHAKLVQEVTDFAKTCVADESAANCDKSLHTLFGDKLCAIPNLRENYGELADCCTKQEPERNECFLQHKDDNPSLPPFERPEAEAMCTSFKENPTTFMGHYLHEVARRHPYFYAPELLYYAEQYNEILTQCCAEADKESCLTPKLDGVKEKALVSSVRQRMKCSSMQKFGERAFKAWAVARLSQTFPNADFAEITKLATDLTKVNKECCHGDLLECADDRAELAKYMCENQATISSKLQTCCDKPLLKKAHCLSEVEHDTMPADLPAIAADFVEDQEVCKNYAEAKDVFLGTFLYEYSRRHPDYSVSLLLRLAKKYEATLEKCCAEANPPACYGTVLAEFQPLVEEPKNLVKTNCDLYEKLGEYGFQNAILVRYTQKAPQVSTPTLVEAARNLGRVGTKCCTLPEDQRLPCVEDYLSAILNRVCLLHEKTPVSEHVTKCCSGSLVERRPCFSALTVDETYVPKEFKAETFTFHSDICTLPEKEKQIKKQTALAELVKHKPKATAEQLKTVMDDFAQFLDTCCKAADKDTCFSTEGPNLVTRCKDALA
Sequence of PMP6A6 (ALB1) (VHH) (VHH): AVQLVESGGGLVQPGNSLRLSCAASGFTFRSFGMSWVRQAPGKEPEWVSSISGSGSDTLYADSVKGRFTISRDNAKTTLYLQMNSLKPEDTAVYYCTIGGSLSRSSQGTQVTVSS

- factor of difference in affinity for human/rhesus versus mouse serum albumin [1]: 12 fold
- Kd [2]: 0.57 nM
- koff [2]: 0.00063 s⁻¹
- kon [2]: 1.11e+06 M⁻¹ s⁻¹
- Kd [3]: 6.5 nM
- koff [3]: 0.00725 s⁻¹
- kon [3]: 1.11e+06 M⁻¹ s⁻¹
- Kd [4]: 0.52 nM
- koff [4]: 0.000546 s⁻¹
- kon [4]: 1.05e+06 M⁻¹ s⁻¹
Substance: PMP6A6 (ALB1) (VHH)
